This note sets out measurements from the NTF2 design screens of Basanta et al. (2020).

This series can be described thus: protease stability score; higher = more stable; yeast display proteolysis, trypsin and chymotrypsin.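 Further: log10 excess protease needed over predicted unfolded state with 0 meaning unfolded.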

As to “DEKQVLELIRDVMKHVQNGNQEEVKKHGKPSVEVILFNERYTGPEALVRLAEFAQKLGAQFEYKETRHEGNKVKTKVEVTFGGTTVRYEVEVEAEGGKVVKWEVRASDEFDERVKKS”, the protease stability score came to 1.09.

As for “DEKQVVKVAKRVVQAVFEGDEELMKKMGKEDVEVEVGDTKYKGVDQAVDLVRKYKEFGLEFELKKYEVKGDTVTFHAKLYAGDKTIDVTVHYRADDGKMDETKVELSEEADKAFKQH”, the protease stability score amounted to 1.1. Under “DEKRAHDFAQQVIRVIQDGDPREAQKLADENVRVEYGDRTVHGKEQISNFAQEFRTRVDHVKIDTWHAQGDKIVIHLKVNVNGREKRVVVVVEVHNGRVKSLVYKDG” stands 1.24; under “DEKRALEVIKRYAEYLKRGNADEARKMGKEGVEAEFGDTHVHGADQVKEYVKKVKDVGAHVEYKEVEYKGDTVTVKTEVTRGDAKVTFEVKYQAKGDKVVNLEMKFNKEQMKEFKKS”, -0.015; under “DEKRARKLLEKAFELVQKGNKDTMRKIGKPNVKYKYVDQEYEGPEAMKFVIDVVKKIGAEVKKQEVEVKGDTAKATFQYRQGDKTVETRVEVKYEGDKLKEVRVEATDEVKKLVHQG”, 0.009. Under “DEKREKDVAENFNTILENNDPDNLRKQAPPEAHAVIGDTRYRGMETFVTIMKKMWDEVDHFTVDDYQVQNGRVTIQAHVQVNGRQVTLHLEMIIDNGHITHIRMDPRQYRQFEG” stands -0.434; under “DEKREQELAKKFADVFQRNNESELRKMIDENARYEIGDKTYRGTKAVKHVMKKVHDRADHVQVENFKAHNGTMELYLRYHVNGQDVRIIIELELRNGKVQHARYDVTSEEDRHNVEN”, 0.041.

Take “DEKRFTELAEKAFKIIMNGNEEEARKMGKPNVEYKYGDKEFEGEEAMQYAVQLVIKVGAEAKVRRMEVRGDTMRADFQYTLGDKTVQTTAQVQYEGDYAKKAENELSDEAKKIMHQG”: the protease stability score stood at 0.434. Then “DEKRLKELLEHVFKQVMNGNEEEVLKHGKPDVQYEYLTKRYEGEDAMRVVIKKIKRIGAEVQVKRREVHGNTMRADFDYHKGDQTVRTTAEAKYEGDQVKEFRVKVTEEHKQVIHQG”, with 0.104; and “DEKRLKEVAKKVFEAVQKGDTEKLKKLGKEDGKFQFLDHRYKGKEEYARIMQKLKKHGVQFEIKKYQVKDNKVRMETVVTYGDQTFTVEAEARYEGGQLDEARVEMTEEAKERLKQG”, with -0.084. Under “DEKRLREIATRIVDALKTNNPEDFQKQLDEDAEVSIGDKTVRGQKQIVKMMDEFNSRVDEIDFKSYTAEGNQVVVNAVFNHNGRQQHLHFVFVFHNGKAKTVKAESS” stands 1.12; under “DEKRLTELLEVMKHGDFDRLANLMDKDVRIEYGDKSVRGREQAQHLMEKQKKRADHVEWKEYHFQGDTVSVRLVVRINGKEVEYHQTYRVNNGKITDMEQRARDEDDERQLRRVEG”, -0.093; under “DEKRMKELMDKVFRLVMEGNEEDVVKMGAPDVKYKYADHEYKGPEVMKEVAVMVRRLGAEVRVKRKEVHGDTAQADFDYRKGDTTVRTTARVKYEGDKVKRAEVEVSDEVKKIVHQG”, 0.144. Sequence “DEKRMLKVAKEVAEMVRRGDADRVHKYLKEGGRAEVGDTEINGPDQMKEYVKKVKDQGAHNEYKETEYKGDTMTIKTQAHLGDATVDFEVHYQVKGDKVERVEVRFNKEQLKKFKDS” had a protease stability score of -0.087. Under “DEKRMVELMRKIFKTIINGNEDEVKKILPPHGEYHYIDKKFEGKEVAEYIIKLVKKMGAEAKVKEQEVKGDTAKATFQYRKGDKTVQTKAEVKYEGDKMKKARVENTDEVRKVVHQG” stands -0.024; under “DEKRQAKEYVKHFDEVIETNDPDQLNELMDKDVRLDIGETKVSGRDDAKKWAKELVDQIDHVRVNVRKVDVQGDTIKVEVDIQIQYNGRHEQRVLHFTAVLSNGRAKIKRFTVE”, 0.559; under “DEKRQQDQAKKIADALSTGDEDQFLQNMDPNAHVRVGDKTFHGRDDVRRMLREVNEHVDEINVHDVSVHNGQVDAVLVWEHNGRKQRKKVVVDRHNGRVHSVEIRDQ”, -0.189.

As to “DEKRVEELARKLFKYIINGDQEKVKTLLKPNVEYNYIDTQYKGPDAAVTMAQEVKKVGAEVKVREEKVEGNTAEVVFQYRVGDNTMQTKAQVHYEGDKVKEVRVELSEEVKKVVHQG”, the protease stability score came out at 0.124. The sequence “DEKRVKELADKIFKDIINGNEEVVRKLGDPDVRYEYLDKKFRGEEAMIFIVQVVKRVGAEVKVERKEVRGDTAKADFRYRKGDTEVKTTAEVIYEGDKLKEARVHLTDEVKKVMTQG” returned a protease stability score of -0.006.

As to “DEKRVKEMVKKIFEVIKKGDEDKIVKQLMPNVEYHYIDQKFEGEDAARHIVKIVKHIGAEDREKKHEVNGDTMTVVFVYHNGDKTIQTKATVTYEGDVVKKAEVRLDDEVKKLARKG”, the protease stability score turned out to be 0.088. On to “DEKRVRRFAHKFIEVIERGDEHELRNLMDPDASMRVGDRTIHGRDEAARTIMKFLKRVDNLEVKSYDAQGDKVDIKVRASHDGKEHRITFDVKVHNGHIRHVTVKID”, for which the protease stability score was determined as 2.64.

“DEKRYEELVKKAFDVIRNGNEEEMRKLGKPDVEYKYADKEFEGEEAMQTMVQVVKRIGAKVEIQHEEVHGDTAHAVFVYKKGNRTAQTTVKVVYEGDKLKKAEVKMTDEVRKVLHDG” returned a protease stability score of -0.024. Sequence “DEKRYKELADKAFKYIVNGNEEQAIKMLKPNVRYEYVDKEMKGEEAAKEIVQLMQKVGAKVETQEKEVHGDTMRAVFQYHDGDTTVQTTAEVVYKGDKVEKVRVEISEEVKKIVERG” registered a protease stability score of -0.265. Sequence “DEKRYKELFETVFKMVINGDEEDVKKIINPNGKYQYGDKEFEGPEVAHELVRVVKEMGAEVKETRYEVNGDTARADFKYINGDQEVTTTAEAVYKGDKMEEARVHISEEVKKVLHQG” showed a protease stability score of -0.143. Under “DEKRYTEIAEKVFKYARNGNEEEMRKDGMPDLKYKYIDKEYEGEDAMRFVVELVKKIGAEDRQEKQEVKGNTAEAVFVYHNGDETVTTKAQVHYEGDKVKEVRVELTDEVKKVIKKG” stands 0.135; under “DEKTAASQFFRDLRHALRQGDETRIMELADENVEFQIGDKRWHGRESAMELARHVHNRADTVELRIEDLKIDNGQMNADVLITFNHNGRNETQRVNVRARIHNGHVVLVEVHQK”, 1.62; under “DEKTAQDTAKEIVKYWEQGDFEKLNKNADKNVRIRYGDKDYSGRDNFQELQKKFREHVDHVEVHSVDVEGDKIRVVIMFVVNGKHMVMEFVVDYHNGHLKSVSVDARNPDQKKRADK”, 0.46. Under “DEKTERDQARKLIHILEEGDEEKMANLMDENAHIQVGDTTYSGREDVRRFMQSWSERVDRFSVHSITAHNGKIDIDVEFVVNGRKVQMDLRFHVENGRIKTDKFQFRDEDKFKDMQS” stands 0.295; under “DEKTKAKQLADTLKRLAESGDFVRIAQLFDENARLNYGDKTVHGREQAEDQAKKIHDQIDHMELELKSVSVNENSVQISMEVVWHHNGNHHRFEVVVRIDVDENKNRARNADYQ”, 0.921. Under “DEKTLKELADHLIRAIETGNEHQFQKMADPNVKAQYGDSKVRGREDLAEYFKTLVDRADHIQFDHWDAQGNKVTMHFVLRVNGVDVRIVVFIHVTNGKIKHVRVHVTDPQEFRRMQG” stands 0.515; under “DEKTVKEVVDKWIKALENNDEEKLQKMLKPNGEAHYADTTYKGKDQIVKYVVEFMRRGVELQVKEQEVKGGRAEYQVDATLGGDTVTLRVVIYVKDGVVDKVEFRDDEKVQKMMKKG”, 0.105; under “DEKVHKIFEHYMTAVNRNNPDRAMRQVDPNAHVEVGDRQISGRENLRETVEKLNKHARINYRDFDAELHGDKVNVDLDIRMEYNGKPYSDHVIIIFRAQGDKIKHMTNDIDPDVEHHFEQ”, 0.081. With “DEKVKELFKRLLRALHTGDEEQARRLVDPNARIQVGDQRYHGMDEALRQMLHNMQDIEVSQRYIEVDVSGDRVHYRAEVEKTHNGKPEREQYSATVHAHNGKVVQVEMHTDK”, the protease stability score stood at 0.069.
